# Target: PSA (prostate specific antigen) (UniProt P07288)
# Experiment: cell-based or functional assay
# Sequence of UniProt P07288 (P07288 25-261 limits assumed): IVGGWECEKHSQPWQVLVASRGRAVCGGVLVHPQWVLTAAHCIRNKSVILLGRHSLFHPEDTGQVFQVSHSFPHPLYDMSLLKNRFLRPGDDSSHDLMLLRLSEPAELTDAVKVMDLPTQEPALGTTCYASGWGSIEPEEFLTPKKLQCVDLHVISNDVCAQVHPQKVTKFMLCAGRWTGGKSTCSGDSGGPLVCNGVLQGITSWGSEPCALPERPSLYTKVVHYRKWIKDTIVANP
substance,measurement,value
Analog 221 (211/amide or nonester) Mu-His-Ser-Ser-Lys(Fmoc)-Leu-Gln-Leu (peptide),"cytotoxicity IC50, 48 hour exposure, Prostate DuPro cells (trace PSA)",13 µM
same,"cytotoxicity IC50, 48 hour exposure, Prostate LnCAP cells (positive PSA)",0.8 µM
same,"cytotoxicity IC50, 48 hour exposure, Prostate PC3 cells (negative PSA, control)",> 21 µM

# From patent publication US20180263927A1
